According to IntAct's records for PubMed 29995851:

B1: Protein patched homolog 1 (Homo sapiens), Q13635-1 (parent)
chain: MASAGNAAEPQDRGGGGSGCIGAPGRPAGGGRRRRTGGLRRAAAPDRDYLHRPSYCDAAFALEQISKGKATGRKAPLWLRAKFQRLLFKLGCYIQKNCGKFLVVGLLIFGAFAVGLKAANLETNVEELWVEVGGRVSRELNYTRQKIGEEAMFNPQLMIQTPKEEGANVLTTEALLQHLDSALQASRVHVYMYNRQWKLEHLCYKSGELITETGYMDQIIEYLYPCLIITPLDCFWEGAKLQSGTAYLLGKPPLRWTNFDPLEFLEELKKINYQVDSWEEMLNKAEVGHGYMDRPCLNPADPDCPATAPNKNSTKPLDMALVLNGGCHGLSRKYMHWQEELIVGGTVKNSTGKLVSAHALQTMFQLMTPKQMYEHFKGYEYVSHINWNEDKAAAILEAWQRTYVEVVHQSVAQNSTQKVLSFTTTTLDDILKSFSDVSVIRVASGYLLMLAYACLTMLRWDCSKSQGAVGLAGVLLVALSVAAGLGLCSLIGISFNAATTQVLPFLALGVGVDDVFLLAHAFSETGQNKRIPFEDRTGECLKRTGASVALTSISNVTAFFMAALIPIPALRAFSLQAAVVVVFNFAMVLLIFPAILSMDLYRREDRRLDIFCCFTSPCVSRVIQVEPQAYTDTHDNTRYSPPPPYSSHSFAHETQITMQSTVQLRTEYDPHTHVYYTTAEPRSEISVQPVTVTQDTLSCQSPESTSSTRDLLSQFSDSSLHCLEPPCTKWTLSSFAEKHYAPFLLKPKAKVVVIFLFLGLLGVSLYGTTRVRDGLDLTDIVPRETREYDFIAAQFKYFSFYNMYIVTQKADYPNIQHLLYDLHRSFSNVKYVMLEENKQLPKMWLHYFRDWLQGLQDAFDSDWETGKIMPNNYKNGSDDGVLAYKLLVQTGSRDKPIDISQLTKQRLVDADGIINPSAFYIYLTAWVSNDPVAYAASQANIRPHRPEWVHDKADYMPETRLRIPAAEPIEYAQFPFYLNGLRDTSDFVEAIEKVRTICSNYTSLGLSSYPNGYPFLFWEQYIGLRHWLLLFISVVLACTFLVCAVFLLNPWTAGIIVMVLALMTVELFGMMGLIGIKLSAVPVVILIASVGIGVEFTVHVALAFLTAIGDKNRRAVLALEHMFAPVLDGAVSTLLGVLMLAGSEFDFIVRYFFAVLAILTILGVLNGLVLLPVLLSFFGPYPEVSPANGLNRLPTPSPEPPPSVVRFAMPPGHTHSGSDSSDSEYSSQTTVSGLSEELRHYEAQQGAGGPAHQVIVEATENPVFAHSTVVHPESRHHPPSNPRQQPHLDSGSLPPGRQGQQPRRDPPREGLWPPPYRPRRDAFEISTEGHSGPSNRARWGPRGARSHNPRNPASTAMGSSVPGYCQPITTVTASASVTVAVHPPPVPGPGRNPRGGLCPGYPETDHGLFEDPHVPFHVRCERRDSKVEVIELQDVECEERPRGSSSN

Variants of: B1
Details: with shh_human SHH

Variant	effect of a mutation on the interaction
L254A;W256A	decreasing interaction strength
E221A;Y222A;L223A;Y224A	disrupting interaction
